Experimental data as given in patent US20150217006A1 (IMMUNOMEDICS, published 2015).

How the values were obtained:
[1] = target: T1, gastrin-releasing peptide receptor (GRPR) (human, UniProt P30550 1-384); assay: competition with 125I-Bombesin on PC-3 cells, inhibitor 56 to 0.44 nM
T1 construct: whole, on cells; also called GRP receptor; GRP-receptor
Procedure: (§1) We used IMP333 as a non-specific control. […] A range of 56 to 0.44 nM was used as our inhibitory concentrations.

[2] = target: T1, gastrin-releasing peptide receptor …; assay: competition with 125I-BBN on PC-3 cells, repeat experiment, inhibitor 250 to 2 nM
Procedure: as §1
This experiment was repeated using a commercially available BBN peptide. We increased the amount of inhibitory peptide from 250 to 2 nM to block the ¹²⁵I-BBN from binding to PC-3 cells.

T1 sequence (P30550 whole entry): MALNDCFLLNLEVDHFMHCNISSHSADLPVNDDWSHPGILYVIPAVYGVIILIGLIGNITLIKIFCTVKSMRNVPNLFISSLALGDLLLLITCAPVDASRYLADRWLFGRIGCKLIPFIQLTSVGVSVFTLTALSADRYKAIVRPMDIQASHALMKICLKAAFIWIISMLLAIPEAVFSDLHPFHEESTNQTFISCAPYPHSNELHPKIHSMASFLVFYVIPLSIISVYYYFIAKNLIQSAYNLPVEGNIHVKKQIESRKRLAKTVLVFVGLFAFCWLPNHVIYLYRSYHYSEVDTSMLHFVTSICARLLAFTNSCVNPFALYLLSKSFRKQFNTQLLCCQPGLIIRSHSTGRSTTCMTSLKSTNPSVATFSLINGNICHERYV

B1: IMP468 (NOTA-NH-(CH2)7CO-Gln-Trp-Val-Trp-Ala-Val-Gly-His-Leu-Met-NH2) (peptide)
peptide: QWVWAVGHLM
HELM: PEPTIDE1{[O=C(O)CN1CCN(CC(=O)O)CCN(CC(=O)[*:2])CC1].[O=C(CCCCCCCN[*:1])[*:2]].Q.W.V.W.A.V.G.H.L.M.[am]}$$$$V2.0
SMILES: CSCC[C@H](NC(=O)[C@H](CC(C)C)NC(=O)[C@H](Cc1c[nH]cn1)NC(=O)CNC(=O)[C@@H](NC(=O)[C@H](C)NC(=O)[C@H](Cc1c[nH]c2ccccc12)NC(=O)[C@@H](NC(=O)[C@H](Cc1c[nH]c2ccccc12)NC(=O)[C@H](CCC(N)=O)NC(=O)CCCCCCCNC(=O)CN1CCN(CC(=O)O)CCN(CC(=O)O)CC1)C(C)C)C(C)C)C(N)=O
notes: also called NOTA-conjugated bombesin derivative
With B1 the IC50 [1] was 0.0215 µM and the IC50 [2] was 0.0359 µM.
